Data reported in FireProtDB (doi:10.1371/journal.pone.0064824).
Where “and” joins values, the source holds several entries; their conditions need not be identical. Equal entries are not always repeated.

Settings: Homo sapiens, pH 7.5, Tris-HCl 20mM; for unfolding free energy / denaturant m value / ddG of mutation (higher = less stable): 10 °C, Urea; for Tm: Thermal
[1] = CD, transition: 2, structure 1XWS

Chain of Serine/threonine-protein kinase pim-1 wild type, P11309 (P11309 whole entry): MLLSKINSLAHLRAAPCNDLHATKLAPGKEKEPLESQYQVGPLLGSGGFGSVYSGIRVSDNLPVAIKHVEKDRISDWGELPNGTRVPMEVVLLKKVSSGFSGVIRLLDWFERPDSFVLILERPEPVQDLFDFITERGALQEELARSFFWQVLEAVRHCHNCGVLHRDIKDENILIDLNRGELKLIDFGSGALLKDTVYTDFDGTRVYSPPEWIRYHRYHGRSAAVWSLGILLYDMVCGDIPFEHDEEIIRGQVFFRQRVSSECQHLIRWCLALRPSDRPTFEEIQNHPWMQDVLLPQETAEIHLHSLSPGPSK
Chain of Serine/threonine-protein kinase pim-1 E135K, P11309 (P11309 whole entry E135K): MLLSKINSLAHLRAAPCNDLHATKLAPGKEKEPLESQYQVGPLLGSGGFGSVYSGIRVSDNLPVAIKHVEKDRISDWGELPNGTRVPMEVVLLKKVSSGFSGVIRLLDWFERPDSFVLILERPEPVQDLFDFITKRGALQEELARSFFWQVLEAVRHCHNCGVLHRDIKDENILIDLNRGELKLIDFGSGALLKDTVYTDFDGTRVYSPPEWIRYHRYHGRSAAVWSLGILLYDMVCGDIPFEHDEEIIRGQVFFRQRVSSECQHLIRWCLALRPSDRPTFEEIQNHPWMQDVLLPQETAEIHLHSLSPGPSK
Chain of Serine/threonine-protein kinase pim-1 E142D, P11309 (P11309 whole entry E142D): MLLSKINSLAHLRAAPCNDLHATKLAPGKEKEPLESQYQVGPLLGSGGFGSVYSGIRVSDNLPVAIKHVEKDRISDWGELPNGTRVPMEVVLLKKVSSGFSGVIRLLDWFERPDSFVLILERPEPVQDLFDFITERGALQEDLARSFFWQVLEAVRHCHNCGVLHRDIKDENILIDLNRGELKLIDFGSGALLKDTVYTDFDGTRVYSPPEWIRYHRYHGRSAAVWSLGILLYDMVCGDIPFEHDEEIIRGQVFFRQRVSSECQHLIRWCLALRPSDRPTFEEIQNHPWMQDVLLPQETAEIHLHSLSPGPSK
Chain of Serine/threonine-protein kinase pim-1 Y53H, P11309 (P11309 whole entry Y53H): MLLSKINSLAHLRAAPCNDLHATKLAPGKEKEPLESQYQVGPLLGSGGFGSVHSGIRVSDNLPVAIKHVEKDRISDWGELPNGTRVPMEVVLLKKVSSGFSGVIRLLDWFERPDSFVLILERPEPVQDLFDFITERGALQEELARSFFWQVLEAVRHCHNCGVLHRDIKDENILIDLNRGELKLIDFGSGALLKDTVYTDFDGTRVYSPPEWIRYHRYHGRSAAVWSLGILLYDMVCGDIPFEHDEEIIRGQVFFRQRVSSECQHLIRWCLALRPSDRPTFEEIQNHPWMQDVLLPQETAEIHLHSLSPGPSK
Chain of Serine/threonine-protein kinase pim-1 E124Q, P11309 (P11309 whole entry E124Q): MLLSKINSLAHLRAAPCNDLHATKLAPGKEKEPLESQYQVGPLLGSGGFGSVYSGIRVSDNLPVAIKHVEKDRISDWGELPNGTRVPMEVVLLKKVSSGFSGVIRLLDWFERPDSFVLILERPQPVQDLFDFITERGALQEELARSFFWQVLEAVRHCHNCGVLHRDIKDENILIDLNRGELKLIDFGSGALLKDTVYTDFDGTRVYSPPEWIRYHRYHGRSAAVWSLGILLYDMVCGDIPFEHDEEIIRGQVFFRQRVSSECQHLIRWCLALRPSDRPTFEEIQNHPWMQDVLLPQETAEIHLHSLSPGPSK

Row | Substance | unfolding free energy (Fluorescence, transition: 4, structure 1XWS) | Tm [1] [°C] | denaturant m value (CD, transition: 2) [kcal/mol/M] | unfolding free energy (CD, transition: 2) [kcal/mol] | Tm (CD, transition: 3) [°C] | ddG of mutation (higher = less stable) [1] [kcal/mol] | denaturant m value [1] [kcal/mol/M] | unfolding free energy [1] [kcal/mol]
1 | Serine/threonine-protein kinase pim-1 E124Q, P11309 | 3.46 kcal/mol and 3.08 kcal/mol and 5.22 kcal/mol | 44 |  |  |  |  |  | 
2 | Serine/threonine-protein kinase pim-1 wild type, P11309 |  |  | 1.2 | 6.41 | 40.5 |  |  | 
3 | Serine/threonine-protein kinase pim-1 E135K, P11309 |  | 40.5 |  |  |  | 4.59 | 0.43 | 1.82
4 | Serine/threonine-protein kinase pim-1 E142D, P11309 |  | 40 |  |  |  | 3.22 | 0.69 | 3.19
5 | Serine/threonine-protein kinase pim-1 Y53H, P11309 |  |  |  |  |  | 3.3 | 0.62 | 3.11
